B1: 2H3 (scFv)
scFv: QVQLVQSGAEVKKPGSSVKVSCKASGGPFSSYAISWVRQAPGQGLEWMGGIIPIFGTANYAQKFQGRVTITADESTSTAYMELSSLRSEDTAVYYCARGTDYSGYRGFDVWGQGTLVTVSSGGGSGGGSGGGSGGGSQTVVTQEPSFSVSPGGTVTLTCALSSGSVSSFNYASWYQQTPGQAPRTLISNTNTRSSGVPDRFSGSILGNKATLTITGAQADDESHYYCALYVGGGISVFGGGTKLTVL
B2: 1F1 (scFv)
scFv: QVQLVQSGAEVKKPGSSVKVSCKASGGTFSSYAISWVRQAPGQGLEWMGGISAIFGTANYAQKFQGRVTITADESTRTAYMELSSLRSEDTAVYYCARGSGYYVAASGAFDVWGQGTLVTVSSGGGSGGGSGGGSGGGSQPGLTQPPSVSKGLRQTATLTCTGNINNVGDQGAGWLQQHQGRPPKLLSYRNSNRPSGVSERFSASRSGNTASLTITGLQPEDEADYYCSAWDSSLSDWVFGGGTKLTVL
B3: 2G3 (scFv)
scFv: QVQLVQSGAEVKKPGSSVKVSCKASGGTFRSYAISWVRQAPGQGLEWMGGIMPIFGTANYAQKFQGRVTITADESTTTVYMELSSLRSEDTAVYYCARGAGVSAGPSWPFDVWGQGTLVTVSSGGGSGGGSGGGSGGGSQPGLTQPPSVSKDLRQTATLTCTGNSNNVGKQGATWLQQHQGHPPKLLSYRNNNRPSGISERFSASRSGDTASLTITGLQPEDEADYYCSAWDSSLSVWVFGGGTKLTVL
B4: 2B6 (scFv)
scFv: QVQLVQSGAEVKKPGSSVKVSCKASGGPFSSYAISWVRQAPGQGLEWMGGISPIFGTANYAQKFQGRVTITADKSTNTAYMELSSLRSEDTAVYYCARGRSYIVSVSPGFDVWGQGTLVTVSSGGGSGGGSGGGSGGGSQSVLTQPPSASGSPGQSVTISCTGTSSDVGGYNYVSWYQQYPGKAPKLMIYEVSKRPSGVPDRFSGSKSGTSASLAISELQSEDEADYYCASWDDSLNAYVFGSGTKVTVL
B5: 1F5 (scFv)
scFv: QVQLVQSGAEVKKPGSSVKVSCKASGGTFSSYAISWVRQAPGQGLEWMGGISPIFGTANYAQKFQGRVTITSDESTSTAYMELSSLRSEDTAVYYCARDQGGTRGNYFDVWGQGTLVTVSSGGGSGGGSGGGSGGGSQPVLTQPPSVSKGLRQTATVTCTGNSNNVGNQGAAWLQQHQGHPPKLLSYRNNNRPSGISERLSASRSGNTASLTIAGLQPEDEADYYCSAWDNTVSGWVFGGGTRVTVL
B6: 2E12 (scFv)
scFv: QVQLVQSGAEVKKPGSSVKVSCKASGVTFSSYAISWVRQAPGQGLEWMGGISPMFGTANYAQKFQGRVTITADESTNTAYMELSSLRSEDTAVYYCARGGGYYPAGVGRYDVWGQGTLVTVSSGGGSGGGSGGGSGGGSDIVMTQSPDSLAVSLGERATINCKSSQNVLYSSNNKNNLAWYQQRPGQPPKVLLYWASTRASGVPDRFSGSGSGTDFTLTINSLQAEDVALYYCQQYYGKPFTFGPGTKVEIK
B7: 1E6 (scFv)
scFv: QVQLVQSGAEVKKPGSSVKVSCKASGVTFSSYAISWVRQAPGQGLEWMGGISPIFGTANYAQKFQGRVTITADESTSTAYMELSSLRSEDTAVYYCARGREYYASNGDSFDVWGQGTLVTVSSGGGSGGGSGGGSGGGSQPVLTQPPSVSVAPGKTASISCEGNNIATKSVHWYQQKSGHAPVVVVYHDSDRPSGVPDRFSGSKSGTSASLAISGLRSEDEADYYCAAWDDSLSGPWVFGGGTKLTVL
B8: 1F12 (scFv)
scFv: QVQLVQSGAEVKKPGSSVKVSCKASGGIFSSYAISWVRQAPGQGLEWMGGITPIFGTANYAQKFQGRVTITADESTRTAYMELSSLRSEDTAVYYCARDLSRDSLNLPGSSPGYDLWGQGTLVTVSSGGGSGGGSGGGSGGGSETTLTQSPGTLSLSPGERATLSCRASQSVSSNLAWYQQKPGQAPRLLIYGASTRATGIPARFSGSGSGTEFTLTISSLQSEDFAVYYCQQYSSSPYTFGQGTKLEIK
B9: 4C4 (scFv)
scFv: QVQLVQSGAEVKKPGSSVKVSCKASGGTFSSYAISWVRQAPGQGLEWMGGISPMFGTANYAQKFQGRVTITADKSTSTAYMELSSLRSEDTAVYYCAREGGYSPGGVDFDYWGQGTLVTVSSGGGSGGGSGGGSGGGSNFMLTQPHSVSESPGKTVTISCTRSSGSIASTYVQWYRQRPGSAPTTVIYEDHQRPSGVPDRFSGSLDSSSNSASLTISGLRTEDAATYYCQSFDASTLVFGGGTKLTVL
B10: 2E11 (scFv)
scFv: QVQLVQSGAEVKKPGSSVKVSCKASGGTFSSYAISWVRQAPGQGLEWMGGINPIFGTANYAQKFQGRVTITADESTNTAYMELSSLRSEDTAVYYCARGESAYYSRNYDVWGQGTLVTVSSGGGSGGGSGGGSGGGSSYELTQPPSVSKGLRQTATLTCTGNSSNVGNQGASWLQQHQGHPPKLLSYRNDNRPSGISERFSASRSGNTASLTITGLQPEDEADYYCSAWDNSLSAWVFGGGTKLTVL
B11: 4F5 (scFv)
scFv: QVQLVQSGAEVKKPGSSVKVSCKASGVTFRSYAISWVRQAPGQGLEWMGGISGIFGTANYAQKFQGRVTITADESTSTAYMELSSLRSEDTAVYYCARSPAYYFGPNMDVWGQGTLVTVSSGGGSGGGSGGGSGGGSQSVLTQPPSVSGAPGQRVTISCTGSSSNIGAGYDVHWYQQLPGTVPKLIIYDNSNRPSGVPARFSGSKSGTSASLAISGLQSEDEAAYYCQSYDSSLSVVVFGGGTKLSVL
B12: 2C1 (scFv)
scFv: QVQLVQSGAEVKKPGSSVKVSCKASGGIFSSYAISWVRQAPGQGLEWMGGISAIFGTANYAQKFQGRVTITADESTSTAYMELSSLRSEDTAVYYCARDSGIASGYTAYMDYWGQGTLVTVSSGGGSGGGSGGGSGGGSSSELTQDPAVSVALGQTVRITCQGDSLRTSYASWYQQKPGQSPVLVIYQSTKRPSGIPERFSASSSGNTASLTITGAQAEDEADYYCNSRGSGGNPYVFGTGTKVTVL
B13: 2F1 (scFv)
scFv: QVQLVQSGAEVKKPGSSVKVSCKASGGTFSSYAISWVRQAPGQGLEWMGGITPLFGTANYAQKFQGRVTITADDSTSTAYMELSSLRSEDTAVYYCARGPTLYSPPVFDVWGQGTLVTVSSGGGSGGGSGGGSGGGSQTVVTQEPSFSVSPGGTITLTCGLSSGSVSTTNYPSWYQQTPGRTPRTLIYNTNTRSSGVPDRFSGSILGNKAALTITGAQAGDESDYYCVLYMGRGIYVFGSGTKVSVL
B14: 1H2 (scFv)
scFv: QVQLVQSGAEVKKPGSSVKVSCKASGGPFRSYAISWVRQAPGQGLEWMGGIIPIFGTANYAQKFQGRVTITADESTSTAYMELSSLRSEDTAVYYCARGGVYSFDVWGQGTLVTVSSGGGSGGGSGGGSGGGSQSGLTQPPSASGTPGQRVTISCSGSGSNVGSNVVNWYQHLPGTAPKLLIYRNNQRPSGVPDRFSGSKSGTSASLAISGLQSEDEADYYCAAWDDRLNGFVFGTGTKVTVL
B15: 2H4 (anti-H1CA0409) (scFv)
scFv: QVQLVQSGAEVKKPGSSVKVSCKASGVTFSSYAISWVRQAPGQGLEWMGGITPIFGTANYAQKFQGRVTITADQSTSTAYMELSSLRSEDTAVYYCARGGGVFDVWGQGTLVTVSSGGGSGGGSGGGSGGGSSYELTQPPSVSGAPRQRVTISCSGSSSNIGNNAVNWYQQLPGKAPKLLIYYDDMLPSGVSDRFSGSKSGSSASLAISGLQSEDEADYYCAAWDDSLSGPVFGGGTNLTVL
B16: 2A1 (scFv)
scFv: QVQLVQSGAEVKKPGSSVKVSCKASGVIFSSYAISWVRQAPGQGLEWMGGIIPIFGTANYAQKFQGRVTITADKSTSTAYMELSSLRSEDTAVYYCARGGSGSFDVWGQGTLVTVSSGGGSGGGSGGGSGGGSQPGLTQPPSASGTPGQRVTISCSGSSSNLGSNYVFWYQHLPGAAPKLLIYRNSQRPSGVPDRFSGSKSGTSASLAISGLQSEDEADYYCAAWDDSLNGVVFGGGTKLTVL
B17: 1H4 (scFv)
scFv: QVQLVQSGAEVKKPGSSVKVSCKASGVPFSSYAISWVRQAPGQGLEWMGGISPLFGTANYAQKFQGRVTITADQSTSTVYMELSSLRSEDTAVYYCARGLGTYSPSLYPRGMDVWGQGTLVTVSSGGGSGGGSGGGSGGGSLPVLTQPPSASGTPGQSVTISCSGSSSNIGRNDVNWYQQFPGRAPKLLIYGRDERPFGVPARFSGSKSGTSASLAISGLQSEDEADYYCAAWDASLMIYVFGTGTTVTVL
B18: 1F3 (scFv)
scFv: QVQLVQSGAEVKKPGSSVKVSCKASGVIFSSYAISWVRQAPGQGLEWMGGISPIFGTANYAQKFQGRVTITADESTSTAYMELSSLRSEDTAVYYCARSRGYAPGTSFHYDVWGQGTLVTVSSGGGSGGGSGGGSGGGSLPVLTQAPSMSVAPGKTASITCGGDNIGSKSVHWYQQKPGQAPVLVMYYDSDRPSGIPERFSGSNSGNTATLTISRVEAGDEADYFCQLWDHTNSHVVFGGRTKLTVL
B19: 2A11 (scFv)
scFv: QVQLVQSGAEVKKPGSSVKVSCKASGVTFSSYAISWVRQAPGQGLEWMGGISPVFGTANYAQKFQGRVTITADDSTNTAYMELSSLRSEDTAVYYCARSRGYTVSSLAGRYFDQWGQGTLVTVSSGGGSGGGSGGGSGGGSETTLTQSPGTLSLSPGERASLSCKASESLCSTCLAWYQQKPGQAPRLIVYGATSRATGIPDRFSGSGSGTDFTLTISRLEPEDFAVYYCQQYGSSPQTFGQGTKVEIK
B20: 1F6 (scFv)
scFv: QVQLVQSGAEVKKPGSSVKVSCKASGGTFSSYAISWVRQAPGQGLEWMGGIITIFGTANYAQKFQGRVTITADESTNTAYMELSSLRSEDTAVYYCARGGGGRFDVWGQGTLVTVSSGGGSGGGSGGGSGGGSSYELTQPPSVSGTPGQRVTISCSGSTSNIGNNALNWYQKLPGTAPKLLIYSLNQRPSGVPDRFSGSKSGTSASLAISGLQSEDEADYYCEAWDDSLSGPVFGGGTKVTVL

These binders were tested against A/California/04/2009 (H1CA0409) recombinant HA (influenza A virus A/California/04/2009, UniProt P26140 18-529) (assay: phage display panning (immunotube) against trimeric HA).

Row | Binder | binding result
1 | B1 | binds
2 | B2 | binds
3 | B3 | binds
4 | B4 | binds
5 | B5 | binds
6 | B6 | binds
7 | B7 | binds
8 | B8 | binds
9 | B9 | binds
10 | B10 | binds
11 | B11 | binds
12 | B12 | binds
13 | B13 | binds
14 | B14 | binds
15 | B15 | binds
16 | B16 | binds
17 | B17 | binds
18 | B18 | binds
19 | B19 | binds
20 | B20 | binds
